Results taken from paper PMC9894195.

Experiments:
[1] = molecular target: full-length human Lck-mEGFP (HEK293T) (UniProt P06239); assay: sFCCS (line-scan fluorescence cross-correlation spectroscopy) in live cells; details: HEK293T cells coexpressing mCherry2-tagged CD4 construct with wild-type Lck-mEGFP; read off a plot
[2] = molecular target: full-length human CD4 with the amphipathic α-helix replaced by a (Gly-Ser)n linker, mCherry2-tagged (human) (UniProt P01730); assay: scanning fluorescence cross-correlation spectroscopy (sFCCS); live HEK293T cells on glass coverslips coexpressing mCherry2- and mEGFP-tagged proteins, one coreceptor; line scans at the basal cell surface; cross-correlation quotient q normalised to the tandem control (100%) and Lck^CS/Lck^CS (0%)
[3] = molecular target: full-length human CD4 with both the basic-rich region and the amphipathic α-helix replaced by (Gly-Ser)n linkers, mCherry2-tagged (human) (UniProt P01730); assay: as above
[4] = molecular target: full-length human CD4 with the unstructured C-terminal tail replaced by a (Gly-Ser)n linker, mCherry2-tagged (human) (UniProt P01730); assay: as above

other: normalized cross-correlation quotient q (occupancy) [1] [%] | decrease in CD4/Lck occupancy [2] [%] | decrease in CD4/Lck occupancy [3] [%] | decrease in CD4/Lck occupancy [4] [%] | Substance
1 |  |  |  | full-length human CD4-mCherry2 (HEK293T) (from UniProt P01730) CQC>SQS (both Zn2+ clasp Cys to Ser; no residue numbers printed)
 | 27 | 28 | 14 | full-length human Lck-mEGFP (HEK293T) (from UniProt P06239 1-509) (enzyme)
